Like-named read-outs stand apart in the source and are kept apart here.
Assays:
[1] = target: T1, Recombinant hPD1-His (Sino Biologicals, reference […]-H08H) (human, UniProt Q15116 25-167); experiment: ELISA, immobilized recombinant hPD1, purified antibody from HEK cells; given as ED50
T1 construct: Bought reagent; also called human PD1 recombinant protein; PD-1 recombinant protein; not shown: histidine tail
Experimental: (§1) Detection was performed with a donkey anti-human antibody coupled to peroxidase and revelation was performed by colorimetry at 450 nm using TMB substrate. […] B: Assessment of antibody binding by cytofluorometry on CD3/CD28 stimulated human PBMCs. […] Data are represented by Mean Fluorescence Intensity (MFI) staining in PD1+ positive CD3+ T cell population. C: Assessment of antibody binding by cytofluorometry on CD3/CD28 stimulated T cells. […] Data are represented by Mean Fluorescence Intensity (MFI) staining in PD1+ positive CD3+ T cell population

[2] = target: T2, human PD-1 expressed on the cell surface (human, UniProt Q15116 25-288); experiment: flow cytometry on CD3/CD28 stimulated human T cells (PD1+ CD3+); given as ED50
T2 construct: whole, on cells; PD-1 on CD3/CD28 stimulated human T cells (flow cytometry), on Promega Jurkat effector cells and on human M1 macrophages (functional assays); also called PD1+ positive CD3+ T cell population; PD-1+ T cells
T2 sequence (Q15116 25-288): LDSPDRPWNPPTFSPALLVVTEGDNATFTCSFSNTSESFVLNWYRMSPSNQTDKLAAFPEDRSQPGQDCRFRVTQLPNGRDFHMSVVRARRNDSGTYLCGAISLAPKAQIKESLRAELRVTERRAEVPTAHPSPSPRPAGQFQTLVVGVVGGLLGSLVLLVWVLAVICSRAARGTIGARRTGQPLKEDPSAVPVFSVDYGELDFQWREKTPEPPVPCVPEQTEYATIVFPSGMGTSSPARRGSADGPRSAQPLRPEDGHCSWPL
Experimental: as §1

[3] = target: chimeric PD-1 receptor fused to Beta-gal fragment (ED) on Jurkat T cells (DiscoverX PathHunter Jurkat PD-1 … (UniProt Q15116 25-288)); experiment: cell-based or functional assay
Sequence of chimeric PD-1 receptor fused to Beta-gal fragment (ED) on Jurkat T cells (DiscoverX PathHunter Jurkat PD-1 … (Q15116 25-288, change not shown): as the sequence (Q15116 25-288) above

[4] = target: T3, biotinylated Human PD1 (AcroBiosystems, reference EP-101) (human, UniProt Q15116 25-167, biotinylated); experiment: competition ELISA, immobilized hPDL1 as competitor, biotinylated PD1 0.66 µg/ml mixed with antibody
T3 construct: also called Biotin-PD-1Fc; not shown: Fc part implied by the name 'Biotin-PD-1Fc'
T3 sequence (Q15116 25-167): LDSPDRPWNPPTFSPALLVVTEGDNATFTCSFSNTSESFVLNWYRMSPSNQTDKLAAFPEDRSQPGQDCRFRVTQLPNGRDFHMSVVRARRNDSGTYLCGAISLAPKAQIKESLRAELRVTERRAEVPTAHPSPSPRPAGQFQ

[5] = target: T2, human PD-1 expressed on the cell surface; experiment: cell-based or functional assay
[6] = target: T1, Recombinant hPD1-His (Sino Biologicals, …); experiment: Blitz (BLI), hPD1-His on Ni-NTA biosensor, antibody 20 µg/mL in solution (avidity)
Experimental: The binding affinity/avidity was measured using Blitz method (Forté Bio; USA; reference C22-2 No 61010-1). […] Then, anti-PD1 antibodies were associated with 20 μg/mL for 120 seconds. The dissociation of anti-PD1 antibody was made in kinetics buffer for 120 seconds. Analysis data was made with the Blitz pro 1.2 software, which calculated association constant (ka) and dissociation constant (kd) and determined the affinity constant KD […].

[7] = target: T2, human PD-1 expressed on the cell surface; experiment: Flow cytometry on CD3/CD28 stimulated human PBMCs, PE-labelled mouse anti-human Fc mAb, MFI in the PD1+ CD3+ T cell population
Experimental: as §1

[8] = target: T1, Recombinant hPD1-His (Sino Biologicals, …); experiment: ELISA on immobilised recombinant hPD1, DO 450 nm
[9] = target: T1, Recombinant hPD1-His (Sino Biologicals, …); experiment: ELISA on immobilised recombinant hPD1, DO 450 nm; remark: listed apart in the source
[10] = target: T1, Recombinant hPD1-His (Sino Biologicals, …); experiment: Biacore SPR, antibody captured on anti-human Fc, hPD1-His as analyte
Experimental: The affinity measurement was performed by Biacore in PP21 platform (Inserm U1194, Université de Montpellier). Anti-human Fc antibody (GEHealthcare) was immobilized at 25 μg/ml in acetate buffer pH5.

[11] = target: T1, Recombinant hPD1-His (Sino Biologicals, …); experiment: Biacore competition with PDL1 for PD1, relative response in % of no Ab

Binder | EC50 [1] | EC50 [2] | IC50 of PD-1/pSHP-1 signaling, DiscoverX PathHunter Jurkat PD-1 (SHP1) assay, chemiluminescence [3] | IC50 [4] | ED50 of NFAT luciferase luminescence, Promega PD-1/PD-L1 bioassay [5] | Kd [6] | koff [6] | kon [6] | EC50 (read off the curve) [7] | EC50 (read off the curve) [8] | EC50 (read off the curve) [9] | Kd [10] | koff [10] | kon [10] | binding result [11]
HCLD (antibody, human IgG4 S228P, kappa, V domains shown, also called humanized anti-PD1 variant HC heavy chain + LD light chain) VH: QIQLVQSGSELKKPGASVKVSCKASGYTFTHYAMNWVRQAPGQGLEWMGWINTNTGEPTYAQGFTGRFVFSLDTSVSTAYLQISSLKAEDTAVYYCAREREPGMDSWGQGTLVTVSS VL: DVVMTQSPLSLPVTLGQPASISCRSSQSLVHANTNTYLEWYQQRPGQSPRLLIYKVSNRFSGVPDRFSGSGSGTDFTLKISRVEAEDVGVYYCFQGTHVPNTFGQGTKLEIKR | 0.0127 µg/mL | 0.278 nM | 12.7 ng/mL | 0.196 µg/mL | 0.41 µg/mL | 1.34 nM | 0.000429 s⁻¹ | 319000 M⁻¹ s⁻¹ | – | – | – | – | – | – | –
HELC (antibody, human IgG4 S228P, kappa, V domains shown, also called humanized anti-PD1 variant HE heavy chain + LC light chain) VH: QIQLVQSGSELKKPGASVKVSCKASGYTFTHYAMNWVRQAPGQGLEWMGWINTNTGEPTYAQGFTGRFVFSLDTSVSTAYLQISSLKAEDTAVYYCAREREPGMDTWGQGTLVTVSS VL: DVVMTQSPLSLPVTLGQPASISCRSSQSLVHANGNTYLEWYQQRPGQSPRLLIYKVSNRFSGVPDRFSGSGSGTDFTLKISRVEAEDVGVYYCFQGTHVPNTFGQGTKLEIKR | – | – | – | – | – | – | – | – | ~0.3 µg/mL | – | – | – | – | – | –
HELD (antibody, human IgG4 S228P, kappa, V domains shown, also called humanized anti-PD1 variant HE heavy chain + LD light chain; HELD(V94)) VH: QIQLVQSGSELKKPGASVKVSCKASGYTFTHYAMNWVRQAPGQGLEWMGWINTNTGEPTYAQGFTGRFVFSLDTSVSTAYLQISSLKAEDTAVYYCAREREPGMDTWGQGTLVTVSS VL: DVVMTQSPLSLPVTLGQPASISCRSSQSLVHANTNTYLEWYQQRPGQSPRLLIYKVSNRFSGVPDRFSGSGSGTDFTLKISRVEAEDVGVYYCFQGTHVPNTFGQGTKLEIKR | 0.0192 µg/mL | 0.402 nM | 19.2 ng/mL | 0.196 µg/mL | 0.46 µg/mL | 1.14 nM | 0.000507 s⁻¹ | 443000 M⁻¹ s⁻¹ | ~0.3 µg/mL | ~0.009 µg/mL | ~0.01 µg/mL | – | – | – | –
HCLC (antibody, human IgG4 S228P, kappa, V domains shown, also called humanized anti-PD1 variant HC heavy chain + LC light chain) VH: QIQLVQSGSELKKPGASVKVSCKASGYTFTHYAMNWVRQAPGQGLEWMGWINTNTGEPTYAQGFTGRFVFSLDTSVSTAYLQISSLKAEDTAVYYCAREREPGMDSWGQGTLVTVSS VL: DVVMTQSPLSLPVTLGQPASISCRSSQSLVHANGNTYLEWYQQRPGQSPRLLIYKVSNRFSGVPDRFSGSGSGTDFTLKISRVEAEDVGVYYCFQGTHVPNTFGQGTKLEIKR | – | – | – | – | – | – | – | – | – | – | – | – | – | – | binds
HGLD (antibody, human IgG4 S228P, kappa, V domains shown, also called humanized anti-PD1 variant HG heavy chain + LD light chain) VH: QIQLVQSGSELKKPGASVKVSCKASGYTFTHYAMNWVRQAPGQGLEWMGWINTNTGEPTYAQGFTGRFVFSLDTSVSTAYLQISSLKAEDTAVYYCAREREPGMESWGQGTLVTVSS VL: DVVMTQSPLSLPVTLGQPASISCRSSQSLVHANTNTYLEWYQQRPGQSPRLLIYKVSNRFSGVPDRFSGSGSGTDFTLKISRVEAEDVGVYYCFQGTHVPNTFGQGTKLEIKR | 0.0147 µg/mL | 1.54 nM | 14.8 ng/mL | 0.178 µg/mL | 1.16 µg/mL | 1.28 nM | 0.000352 s⁻¹ | 274000 M⁻¹ s⁻¹ | – | – | – | – | – | – | –

Now from value to binder:

EC50 [1] | EC50 [2] | IC50 of PD-1/pSHP-1 signaling, DiscoverX PathHunter Jurkat PD-1 (SHP1) assay, chemiluminescence [3] | IC50 [4] | ED50 of NFAT luciferase luminescence, Promega PD-1/PD-L1 bioassay [5] | Kd [6] | koff [6] | kon [6] | EC50 (read off the curve) [7] | EC50 (read off the curve) [8] | EC50 (read off the curve) [9] | Kd [10] | koff [10] | kon [10] | binding result [11] | Binder
0.0134 µg/mL | 0.241 nM | 13.4 ng/mL | 0.194 µg/mL | 0.9 µg/mL | 1.05 nM | 0.000432 s⁻¹ | 410000 M⁻¹ s⁻¹ | – | – | – | – | – | – | – | HJLD (antibody, human IgG4 S228P, kappa, V domains shown, also called humanized anti-PD1 variant HJ heavy chain + LD light chain) VH: QIQLVQSGSELKKPGASVKVSCKASGYTFTHYAMNWVRQAPGQGLEWMGWINTNTGEPTYAQGFTGRFVFSLDTSVSTAYLQISSLKAEDTAVYYCAREREPGMDYWGQGTLVTVSS VL: DVVMTQSPLSLPVTLGQPASISCRSSQSLVHANTNTYLEWYQQRPGQSPRLLIYKVSNRFSGVPDRFSGSGSGTDFTLKISRVEAEDVGVYYCFQGTHVPNTFGQGTKLEIKR
0.0166 µg/mL | 0.223 nM | 16.6 ng/mL | 0.156 µg/mL | 0.89 µg/mL | 1.25 nM | 0.000554 s⁻¹ | 441000 M⁻¹ s⁻¹ | – | – | – | – | – | – | – | HLLD (antibody, human IgG4 S228P, kappa, V domains shown, also called humanized anti-PD1 variant HL heavy chain + LD light chain) VH: QIQLVQSGSELKKPGASVKVSCKASGYTFTHYAMNWVRQAPGQGLEWMGWINTNTGEPTYAQGFTGRFVFSLDTSVSTAYLQISSLKAEDTAVYYCAREREPGMDEWGQGTLVTVSS VL: DVVMTQSPLSLPVTLGQPASISCRSSQSLVHANTNTYLEWYQQRPGQSPRLLIYKVSNRFSGVPDRFSGSGSGTDFTLKISRVEAEDVGVYYCFQGTHVPNTFGQGTKLEIKR
0.0114 µg/mL | 0.187 nM | 11.4 ng/mL | 0.205 µg/mL | 0.69 µg/mL | 0.75 nM | 0.000262 s⁻¹ | 351000 M⁻¹ s⁻¹ | – | – | – | 4.1 nM | ~0.00133 s⁻¹ | 324000 M⁻¹ s⁻¹ | – | HKLD (antibody, human IgG4 S228P, kappa, V domains shown, also called humanized anti-PD1 variant HK heavy chain + LD light chain; humanized anti PD-1 (HKLD variant)) VH: QIQLVQSGSELKKPGASVKVSCKASGYTFTHYAMNWVRQAPGQGLEWMGWINTNTGEPTYAQGFTGRFVFSLDTSVSTAYLQISSLKAEDTAVYYCAREREPGMDNWGQGTLVTVSS VL: DVVMTQSPLSLPVTLGQPASISCRSSQSLVHANTNTYLEWYQQRPGQSPRLLIYKVSNRFSGVPDRFSGSGSGTDFTLKISRVEAEDVGVYYCFQGTHVPNTFGQGTKLEIKR
0.0164 µg/mL | 0.133 nM | 16.9 ng/mL | 0.201 µg/mL | 0.54 µg/mL | 0.84 nM | 0.000343 s⁻¹ | 405000 M⁻¹ s⁻¹ | – | – | – | – | – | – | – | HHLD (antibody, human IgG4 S228P, kappa, V domains shown, also called humanized anti-PD1 variant HH heavy chain + LD light chain) VH: QIQLVQSGSELKKPGASVKVSCKASGYTFTHYAMNWVRQAPGQGLEWMGWINTNTGEPTYAQGFTGRFVFSLDTSVSTAYLQISSLKAEDTAVYYCAREREPGMDHWGQGTLVTVSS VL: DVVMTQSPLSLPVTLGQPASISCRSSQSLVHANTNTYLEWYQQRPGQSPRLLIYKVSNRFSGVPDRFSGSGSGTDFTLKISRVEAEDVGVYYCFQGTHVPNTFGQGTKLEIKR
0.0115 µg/mL | 0.118 nM | 11.6 ng/mL | 0.175 µg/mL | 0.4 µg/mL | 0.93 nM | 0.000427 s⁻¹ | 458000 M⁻¹ s⁻¹ | – | – | – | – | – | – | – | HILD (antibody, human IgG4 S228P, kappa, V domains shown, also called humanized anti-PD1 variant HI heavy chain + LD light chain) VH: QIQLVQSGSELKKPGASVKVSCKASGYTFTHYAMNWVRQAPGQGLEWMGWINTNTGEPTYAQGFTGRFVFSLDTSVSTAYLQISSLKAEDTAVYYCAREREPGMDAWGQGTLVTVSS VL: DVVMTQSPLSLPVTLGQPASISCRSSQSLVHANTNTYLEWYQQRPGQSPRLLIYKVSNRFSGVPDRFSGSGSGTDFTLKISRVEAEDVGVYYCFQGTHVPNTFGQGTKLEIKR
